Measurements reported in patent US20250145684A1 (IMMATICS BIOTECHNOLOGIES, published 2025).

Target: T1, HLA-A*02:01 (human)
T1 construct: MHC monomer first loaded with a UV-sensitive peptide that is cleaved by UV light and exchanged for the test peptide
Test: UV peptide exchange ELISA
Procedure, shortened: (§1)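 Peptide–MHC complexes formed by UV-mediated exchange of a photocleavable ligand; exchange yield assessed by ELISA on streptavidin-coated plates, samples diluted 100-fold. Bound complexes detected with HRP anti-β2m and TMB at 450 nm against HLA-A*02:01 monomer standards (15–500 ng/ml).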

| binding result | Binder |
| --- | --- |
| binds | YVYANHFTEA (also called COL6A3-039) [YVYANHFTEA (SEQ ID NO: 291)] |

Target: T2, HLA-B*08:01 (human)
T2 construct: MHC monomer first loaded with a UV-sensitive peptide that is cleaved by UV light and exchanged for the test peptide
Test: UV peptide exchange ELISA
Procedure, shortened: as §1

| peptide exchange yield [%] | Binder |
| --- | --- |
| 50 to 75 | LMKEKIQEM [LMKEKIQEM (SEQ ID NO: 93)] |
| 20 to 50 | RPAGVFEL [RPAGVFEL (SEQ ID NO: 96)] |
| 50 to 75 | VPYTKVQL [VPYTKVQL (SEQ ID NO: 89)] |
| 20 to 50 | NVKIRFLE [NVKIRFLE (SEQ ID NO: 99)] |
| 20 to 50 | MLLCLSLEL [MLLCLSLEL (SEQ ID NO: 88)] |
| 20 to 50 | VLLMGPLHL [VLLMGPLHL (SEQ ID NO: 100)] |
| 20 to 50 | MPMQDIKMIL [MPMQDIKMIL (SEQ ID NO: 91)] |
| 20 to 50 | LLKGKPRAL [LLKGKPRAL (SEQ ID NO: 9)] |
| 20 to 50 | SRNPRGFFL [SRNPRGFFL (SEQ ID NO: 95)] |
| 50 to 75 | QILQHHVL [QILQHHVL (SEQ ID NO: 87)] |
| 20 to 50 | EPVNTNVVL [EPVNTNVVL (SEQ ID NO: 98)] |
| 50 to 75 | TLKAMVQAW [TLKAMVQAW (SEQ ID NO: 92)] |
| 50 to 75 | DQLLRHVM [DQLLRHVM (SEQ ID NO: 94)] |
| 20 to 50 | TIGLGLHSL [TIGLGLHSL (SEQ ID NO: 90)] |

Target: T3, HLA-B*44:05 (human)
T3 construct: MHC monomer first loaded with a UV-sensitive peptide that is cleaved by UV light and exchanged for the test peptide
Test: UV peptide exchange ELISA
Procedure, shortened: as §1

| binding result | Binder |
| --- | --- |
| binds | EEFLTPKKL [EEFLTPKKL (SEQ ID NO: 290)] |
